Laboratory results published in the Human Domainome abundance scans (Beltran et al. 2025).
± gives the uncertainty stated by the source.

B1: Heterogeneous nuclear ribonucleoprotein U-like protein 2, residues 1 to 40; numbered along this chain, Q1KMD3 (parent)
chain: MEVKRLKVTELRSELQRRGLDSRGLKVDLAQRLQEALDAE

Variants of: B1
Assay: abundance fitness (aPCA) (normalised: wild type 0, dead -1); higher = more abundant; growth selection in yeast, the domain comes from the species named
Conditions: Homo sapiens

Variant	abundance fitness
R23F	-0.137 ± 0.079
R23Y	0.041 ± 0.24
R23L	-0.057 ± 0.056
R23M	-0.232 ± 0.13
R23V	-0.019 ± 0.058
R23H	0.092 ± 0.16
R23E	0.166 ± 0.065
R23K	0.082 ± 0.073
R23G	0.091 ± 0.05
R23T	0.225 ± 0.066
R23P	-0.6 ± 0.096
R23C	0.062 ± 0.078
R23A	0.158 ± 0.057
R23D	0.136 ± 0.067
R23Q	0.114 ± 0.054
R23S	0.167 ± 0.077
R23N	0.127 ± 0.07
R23W	-0.185 ± 0.061
E14S	-0.6 ± 0.075
E14H	-0.512 ± 0.11
E14R	-0.752 ± 0.051
E14A	-0.34 ± 0.053
E14D	-0.635 ± 0.075
E14T	-0.869 ± 0.077

Variant	abundance fitness
E14F	-0.752 ± 0.14
E14M	-0.274 ± 0.081
E14V	-0.845 ± 0.061
E14P	-0.953 ± 0.11
E14G	-0.743 ± 0.054
E14Y	-0.634 ± 0.088
E14W	-0.942 ± 0.09
E14L	-0.311 ± 0.058
E14C	-0.489 ± 0.069
E14K	-0.782 ± 0.08
E14I	-0.551 ± 0.1
R17M	0.006 ± 0.058
R17G	-0.252 ± 0.056
R17D	-0.218 ± 0.12
R17W	-0.521 ± 0.063
R17S	-0.092 ± 0.058
R17E	-0.121 ± 0.062
R17C	-0.282 ± 0.083
R17V	-0.219 ± 0.053
R17K	0.112 ± 0.06
R17I	-0.173 ± 0.095
R17A	0.053 ± 0.053
R17H	-0.276 ± 0.15
R17P	-0.432 ± 0.085

Variant	abundance fitness
R17N	-0.77 ± 0.44
R17L	-0.129 ± 0.054
R17T	-0.184 ± 0.07
R17Y	-0.455 ± 0.099
R17Q	0.008 ± 0.069
R32E	-0.221 ± 0.077
R32D	-0.076 ± 0.1
R32C	-0.441 ± 0.066
R32A	-0.394 ± 0.062
R32F	-1.02 ± 0.17
A30P	-0.718 ± 0.15
A30N	-0.422 ± 0.4
A30S	-0.165 ± 0.069
A30T	-0.058 ± 0.077
A30C	-0.006 ± 0.071
A30V	0.011 ± 0.059
A30G	-0.361 ± 0.063
A30L	-0.21 ± 0.074
A30F	-0.217 ± 0.13
A30W	-0.236 ± 0.056
A30R	0.046 ± 0.051
A30D	-0.217 ± 0.083
A30Q	0.106 ± 0.09
G24A	-0.832 ± 0.077

Variant	abundance fitness
G24S	-0.703 ± 0.072
G24V	-0.855 ± 0.057
G24Q	-0.612 ± 0.14
G24P	-0.578 ± 0.072
G24K	-0.945 ± 0.12
G24L	-0.984 ± 0.076
G24Y	-1.1 ± 0.17
G24C	-0.773 ± 0.079
G24R	-1.03 ± 0.051
G24M	-0.81 ± 0.082
G24W	-1.47 ± 0.08
G24T	-0.837 ± 0.074
S22H	0.08 ± 0.12
S22V	0.079 ± 0.059
S22Q	0 ± 0.064
S22K	-0.333 ± 0.079
S22P	0.12 ± 0.085
S22T	0.142 ± 0.07
S22W	-0.011 ± 0.072
S22C	-0.08 ± 0.1
S22R	-0.402 ± 0.055
S22F	0.176 ± 0.28
S22A	0.063 ± 0.054
S22E	-0.02 ± 0.056

Variant	abundance fitness
S22M	-0.064 ± 0.1
S22L	-0.153 ± 0.065
S22G	-0.052 ± 0.053
L15T	-0.586 ± 0.13
L15K	-0.651 ± 0.095
L15E	-0.491 ± 0.054
L15M	-0.389 ± 0.069
L15A	-0.494 ± 0.053
L15P	-0.312 ± 0.075
L15W	-1.04 ± 0.068
L15C	-0.25 ± 0.079
L15R	-0.815 ± 0.054
L15Q	-0.405 ± 0.073
L15G	-0.614 ± 0.049
L15Y	-0.582 ± 0.12
L15D	-0.344 ± 0.069
L29Y	-0.486 ± 0.098
L29C	-0.137 ± 0.063
L29A	-0.212 ± 0.05
L29E	-0.174 ± 0.068
L29T	-0.083 ± 0.17
L29R	-0.356 ± 0.063
L29F	-0.603 ± 0.16
L29G	-0.188 ± 0.051

Variant	abundance fitness
L29P	-0.299 ± 0.067
L29K	-0.31 ± 0.09
L29I	-0.189 ± 0.075
L29N	-0.352 ± 0.1
L29Q	-0.285 ± 0.07
L29W	-0.853 ± 0.069
L29S	-0.201 ± 0.073
L29H	-0.346 ± 0.098
L29D	-0.104 ± 0.074
R18M	-0.215 ± 0.079
R18K	-0.356 ± 0.088
R18T	-0.627 ± 0.09
R18G	-0.481 ± 0.052
R18I	-0.721 ± 0.32
R18F	-0.685 ± 0.13
R18A	-0.699 ± 0.066
R18C	-0.668 ± 0.092
R18H	-0.726 ± 0.086
R18Y	-0.652 ± 0.1
R18L	-0.228 ± 0.063
R18W	-1.08 ± 0.084
R18S	-0.615 ± 0.067
R18P	-0.436 ± 0.097
R18E	-0.571 ± 0.062

Variant	abundance fitness
R18Q	-0.614 ± 0.099
L25W	-0.248 ± 0.068
L25Y	-0.025 ± 0.11
L25T	0.155 ± 0.081
L25C	0.019 ± 0.067
L25Q	0.046 ± 0.06
L25S	0.118 ± 0.059
L25A	0.189 ± 0.054
L25H	0.105 ± 0.088
L25I	-0.095 ± 0.081
L25E	0.257 ± 0.059
L25V	0.066 ± 0.049
L25M	-0.096 ± 0.084
L25G	0.095 ± 0.046
L25D	0.151 ± 0.072
K26M	-0.048 ± 0.072
K26P	-0.002 ± 0.069
K26A	-0.066 ± 0.056
K26Q	0.008 ± 0.095
K26T	-0.154 ± 0.082
K26S	-0.189 ± 0.073
K26D	-0.019 ± 0.09
K26R	-0.074 ± 0.051
K26G	-0.178 ± 0.051

Variant	abundance fitness
K26I	-0.117 ± 0.089
K26V	-0.149 ± 0.056
K26L	-0.179 ± 0.053
K26Y	-0.103 ± 0.15
K26F	-0.361 ± 0.088
K26W	-0.146 ± 0.058
K26E	0.107 ± 0.06
R12H	-0.339 ± 0.15
R12W	-0.845 ± 0.066
R12V	-0.112 ± 0.06
R12G	-0.507 ± 0.052
R12A	-0.212 ± 0.053
R12T	-0.165 ± 0.065
R12F	-0.574 ± 0.12
R12S	-0.332 ± 0.065
R12P	-0.751 ± 0.081
R12L	-0.495 ± 0.06
R12D	-0.403 ± 0.073
R12Q	0.036 ± 0.07
R12E	-0.147 ± 0.058
Q31C	-0.016 ± 0.083
Q31V	-0.003 ± 0.055
Q31T	0.085 ± 0.069
Q31E	0.141 ± 0.078

Variant	abundance fitness
Q31I	0.012 ± 0.077
Q31G	-0.055 ± 0.049
Q31N	0.252 ± 0.13
Q31P	-0.121 ± 0.062
Q31W	-0.176 ± 0.054
Q31S	0.058 ± 0.057
Q31L	0.009 ± 0.054
Q31A	0.032 ± 0.058
Q31K	0.112 ± 0.067
Q31H	-0.418 ± 0.13
Q31M	-0.041 ± 0.07
Q31F	-0.197 ± 0.079
D21L	-0.557 ± 0.059
D21A	-0.41 ± 0.064
D21W	-0.74 ± 0.064
D21T	-0.217 ± 0.099
D21G	-0.572 ± 0.055
D21F	-0.591 ± 0.22
D21K	-0.428 ± 0.13
D21H	-0.422 ± 0.12
D21Y	-0.204 ± 0.35
D21M	-0.453 ± 0.069
D21R	-0.645 ± 0.053
D21C	-0.068 ± 0.097

Variant	abundance fitness
D21I	-0.871 ± 0.14
L11C	-0.988 ± 0.15
L11M	-0.055 ± 0.062
L11E	-0.336 ± 0.056
L11K	-0.495 ± 0.074
L11R	-0.641 ± 0.049
L11S	-0.438 ± 0.059
L11F	-0.574 ± 0.16
L11D	-0.436 ± 0.085
L11Q	-0.448 ± 0.071
L11V	-0.375 ± 0.059
L11H	-0.827 ± 0.22
L11P	-0.584 ± 0.065
L11W	-1.08 ± 0.071
L11G	-0.502 ± 0.046
L11N	-0.435 ± 0.091
L11I	-0.109 ± 0.09
L11T	-0.436 ± 0.082
L20N	-0.77 ± 0.11
L20M	-0.033 ± 0.076
L20W	-0.624 ± 0.071
L20P	-0.65 ± 0.07
L20V	-0.358 ± 0.054
L20E	-0.383 ± 0.057

Variant	abundance fitness
L20I	-0.151 ± 0.072
L20A	-0.352 ± 0.059
L20C	-0.265 ± 0.062
L20H	-0.572 ± 0.13
L20R	-0.558 ± 0.05
L20Y	-0.462 ± 0.081
L20D	-0.304 ± 0.067
L20S	-0.496 ± 0.061
L20F	-0.353 ± 0.089
L20T	-0.563 ± 0.067
L20Q	-0.364 ± 0.082
L20G	-0.51 ± 0.052
S13V	-0.006 ± 0.056
S13W	-0.033 ± 0.055
S13I	0.039 ± 0.1
S13G	0.035 ± 0.052
S13Y	0.065 ± 0.1
S13Q	0.146 ± 0.062
S13N	0.016 ± 0.087
S13A	0.153 ± 0.052
S13L	0.093 ± 0.058
S13E	0.262 ± 0.066
S13F	-0.04 ± 0.13
S13R	0.055 ± 0.05

Variant	abundance fitness
S13M	-0.058 ± 0.15
S13T	0.022 ± 0.059
S13K	0.085 ± 0.07
S13P	-0.385 ± 0.1
Q16L	-0.09 ± 0.068
Q16S	-0.032 ± 0.071
Q16C	-0.299 ± 0.09
Q16W	-0.539 ± 0.058
Q16A	-0.047 ± 0.053
Q16H	-0.178 ± 0.24
Q16G	-0.171 ± 0.048
Q16N	-0.074 ± 0.13
Q16M	-0.013 ± 0.079
Q16Y	-0.405 ± 0.39
Q16R	-0.104 ± 0.054
Q16T	-0.03 ± 0.061
Q16E	0.098 ± 0.055
Q16I	0.169 ± 0.12
Q16D	-0.079 ± 0.082
Q16V	-0.077 ± 0.059
D28R	-0.342 ± 0.058
D28F	-0.896 ± 0.12
D28A	-0.09 ± 0.052
D28Q	-0.139 ± 0.066

Variant	abundance fitness
D28L	-0.497 ± 0.055
D28G	-0.513 ± 0.061
D28S	-0.407 ± 0.065
D28V	-0.119 ± 0.057
D28W	-1.35 ± 0.11
D28N	-0.248 ± 0.1
D28I	-0.326 ± 0.17
D28Y	-0.715 ± 0.17
D28H	-0.19 ± 0.085
D28K	-0.129 ± 0.073
D28E	0.086 ± 0.063
D28M	-0.382 ± 0.13
D28P	-0.681 ± 0.1
V27D	0.037 ± 0.074
V27S	0.086 ± 0.063
V27I	-0.047 ± 0.071
V27P	0.142 ± 0.11
V27W	-0.339 ± 0.084
V27E	0.038 ± 0.058
V27Y	-0.413 ± 0.14
V27K	0.087 ± 0.1
V27N	0.049 ± 0.13
V27L	-0.087 ± 0.065
V27H	-0.009 ± 0.12

Variant	abundance fitness
V27C	0.09 ± 0.11
V27T	-0.063 ± 0.078
V27R	0.049 ± 0.051
V27G	-0.014 ± 0.05
V27Q	-0.246 ± 0.17
V27M	0.002 ± 0.088
G19I	-1.12 ± 0.16
G19H	-0.196 ± 0.084
G19C	-0.379 ± 0.11
G19V	-0.789 ± 0.063
G19T	-0.521 ± 0.07
G19R	-0.444 ± 0.052
G19L	-0.64 ± 0.061
G19S	-0.276 ± 0.061
G19D	-0.006 ± 0.12
G19A	-0.369 ± 0.051
G19M	-0.676 ± 0.15
G19P	-0.555 ± 0.062
G19K	-0.545 ± 0.22
G19Q	-0.178 ± 0.074
G19E	-0.396 ± 0.084
G19Y	-1.04 ± 0.19
